Key:
Assay in all cases: FRET or BRET
Set-up in all cases: unit not given beside the values
GST-LXRα LBD (human) = biological target: T1, GST-LXRα LBD (human)
T1 sequence (Q13133 whole entry, looked up): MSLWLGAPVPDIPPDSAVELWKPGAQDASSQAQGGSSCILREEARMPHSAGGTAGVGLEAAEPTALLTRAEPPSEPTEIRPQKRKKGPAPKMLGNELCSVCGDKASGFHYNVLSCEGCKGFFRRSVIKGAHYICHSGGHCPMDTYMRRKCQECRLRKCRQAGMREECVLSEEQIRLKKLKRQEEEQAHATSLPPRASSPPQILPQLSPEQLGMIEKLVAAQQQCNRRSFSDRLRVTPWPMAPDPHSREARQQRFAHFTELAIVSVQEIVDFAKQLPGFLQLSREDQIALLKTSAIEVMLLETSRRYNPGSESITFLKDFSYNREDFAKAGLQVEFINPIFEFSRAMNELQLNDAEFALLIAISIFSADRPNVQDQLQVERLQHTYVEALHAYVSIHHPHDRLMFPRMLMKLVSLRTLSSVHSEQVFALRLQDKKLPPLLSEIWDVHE

GST-LXRβ LBD (human) = biological target: T2, GST-LXRβ LBD (human)
T2 sequence (P55055 whole entry, looked up): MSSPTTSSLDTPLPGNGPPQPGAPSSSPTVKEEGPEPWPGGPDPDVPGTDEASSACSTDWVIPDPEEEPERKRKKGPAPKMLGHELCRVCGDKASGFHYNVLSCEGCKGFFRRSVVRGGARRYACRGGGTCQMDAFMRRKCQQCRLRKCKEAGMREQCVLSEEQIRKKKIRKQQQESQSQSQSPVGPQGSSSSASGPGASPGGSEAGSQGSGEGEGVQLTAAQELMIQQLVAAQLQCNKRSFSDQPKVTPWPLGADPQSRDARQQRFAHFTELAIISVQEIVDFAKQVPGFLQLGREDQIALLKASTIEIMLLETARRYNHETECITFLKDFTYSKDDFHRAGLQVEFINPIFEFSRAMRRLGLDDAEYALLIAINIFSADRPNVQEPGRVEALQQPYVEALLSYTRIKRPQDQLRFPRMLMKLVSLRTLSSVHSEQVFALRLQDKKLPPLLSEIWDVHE

[1] = biological target: T3, GST-PXR LBD protein (human)
T3 sequence (O75469 whole entry, species assumed, looked up): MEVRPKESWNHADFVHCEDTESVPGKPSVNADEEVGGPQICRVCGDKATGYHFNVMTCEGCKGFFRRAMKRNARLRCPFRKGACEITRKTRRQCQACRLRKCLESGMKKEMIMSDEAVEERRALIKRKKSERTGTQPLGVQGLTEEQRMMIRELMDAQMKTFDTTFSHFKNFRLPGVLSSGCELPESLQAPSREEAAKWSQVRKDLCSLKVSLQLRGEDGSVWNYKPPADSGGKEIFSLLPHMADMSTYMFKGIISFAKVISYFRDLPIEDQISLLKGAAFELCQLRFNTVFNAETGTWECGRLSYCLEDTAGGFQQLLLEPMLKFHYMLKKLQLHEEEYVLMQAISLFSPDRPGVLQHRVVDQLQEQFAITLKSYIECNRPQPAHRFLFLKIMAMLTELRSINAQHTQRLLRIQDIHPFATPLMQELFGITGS

AUC of SRC-1 recruitment (TR-FRET) with SJPYT-299 (GST-LXRα LBD (human)): 67.1 | AUC of SRC-1 recruitment (TR-FRET) with SJPYT-300 (GST-LXRα LBD (human)): 80.2 | AUC of SRC-1 recruitment (TR-FRET) with SJPYT-301 (GST-LXRα LBD (human)): 95.1 | AUC of SRC-1 recruitment (TR-FRET) with SJPYT-302 (GST-LXRα LBD (human)): 108 | AUC of SRC-1 recruitment (TR-FRET) with SJPYT-303 (GST-LXRα LBD (human)): 63.6 | AUC of SRC-1 recruitment (TR-FRET) with SJPYT-304 (GST-LXRα LBD (human)): 59.5 | AUC of SRC-1 recruitment (TR-FRET) with SJPYT-305 (GST-LXRα LBD (human)): 33.4 | AUC of SRC-1 recruitment (TR-FRET) with SJPYT-315 (GST-LXRα LBD (human)): 62.3 | AUC of SRC-1 recruitment (TR-FRET) with SJPYT-316 (GST-LXRα LBD (human)): 60.8 | AUC of SRC-1 recruitment (TR-FRET) with SJPYT-317 (GST-LXRα LBD (human)): 27.2 | AUC of SRC-1 recruitment (TR-FRET) with T0901317 (GST-LXRα LBD (human)): 122 | AUC of SRC-1 recruitment (TR-FRET) with SJPYT-299 (GST-LXRβ LBD (human)): 133 | AUC of SRC-1 recruitment (TR-FRET) with SJPYT-300 (GST-LXRβ LBD (human)): 136 | AUC of SRC-1 recruitment (TR-FRET) with SJPYT-301 (GST-LXRβ LBD (human)): 154 | AUC of SRC-1 recruitment (TR-FRET) with SJPYT-302 (GST-LXRβ LBD (human)): 149 | AUC of SRC-1 recruitment (TR-FRET) with SJPYT-303 (GST-LXRβ LBD (human)): 120 | AUC of SRC-1 recruitment (TR-FRET) with SJPYT-304 (GST-LXRβ LBD (human)): 125 | AUC of SRC-1 recruitment (TR-FRET) with SJPYT-305 (GST-LXRβ LBD (human)): 76.1 | AUC of SRC-1 recruitment (TR-FRET) with SJPYT-315 (GST-LXRβ LBD (human)): 117 | AUC of SRC-1 recruitment (TR-FRET) with SJPYT-316 (GST-LXRβ LBD (human)): 144 | AUC of SRC-1 recruitment (TR-FRET) with SJPYT-317 (GST-LXRβ LBD (human)): 71.3 | AUC of SRC-1 recruitment (TR-FRET) with SJPYT-318 (GST-LXRβ LBD (human)): 21.8 | AUC of SRC-1 recruitment (TR-FRET) with SJPYT-319 (GST-LXRβ LBD (human)): 21.5 | AUC of SRC-1 recruitment (TR-FRET) with T0901317 (GST-LXRβ LBD (human)): 202 | AUC of SRC-1 recruitment (TR-FRET) with SJPYT-299 [1]: 102 | AUC of SRC-1 recruitment (TR-FRET) with SJPYT-300 [1]: 102 | AUC of SRC-1 recruitment (TR-FRET) with SJPYT-301 [1]: 129 | AUC of SRC-1 recruitment (TR-FRET) with SJPYT-302 [1]: 102 | AUC of SRC-1 recruitment (TR-FRET) with SJPYT-303 [1]: 134 | AUC of SRC-1 recruitment (TR-FRET) with SJPYT-304 [1]: 113 | AUC of SRC-1 recruitment (TR-FRET) with SJPYT-305 [1]: 161 | AUC of SRC-1 recruitment (TR-FRET) with SJPYT-315 [1]: 57.4 | AUC of SRC-1 recruitment (TR-FRET) with SJPYT-316 [1]: 38.7 | AUC of SRC-1 recruitment (TR-FRET) with SJPYT-317 [1]: 39.5 | AUC of SRC-1 recruitment (TR-FRET) with SJPYT-318 [1]: 47.1 | AUC of SRC-1 recruitment (TR-FRET) with SJPYT-319 [1]: 23.6 | AUC of SRC-1 recruitment (TR-FRET) with T0901317 [1]: 124
B1: FAM-SRC1-B peptide (peptide)
peptide: {FAM-(PEG)5}-CPSSHSSLTERHKILHRLLQEGSPS-NH2

— paper PMC10872772
